Measured values as given in patent publication US20230405146A1 (HARBOUR ANTIBODIES, published 2023).
Ends that are not written are not given here.

T1: CD34 peptide (region 191 aa-207aa of the extracellular domain of CD34) coupled to BSA (human, also: coupled to BSA, site not given here)
T1 construct: also called CD34 specific peptide
T1 peptide: LEQNKTSSCAEFKKDRG


Biological target: T2, human Gpr56 on cells (primary blood cells; 32D-Gpr56 cell line) (human, UniProt Q9Y653 26-693)
T2 construct: whole, on cells; In the nanoparticle assays the cells were gated or isolated by CD34, not by Gpr56
T2 sequence (Q9Y653 26-693): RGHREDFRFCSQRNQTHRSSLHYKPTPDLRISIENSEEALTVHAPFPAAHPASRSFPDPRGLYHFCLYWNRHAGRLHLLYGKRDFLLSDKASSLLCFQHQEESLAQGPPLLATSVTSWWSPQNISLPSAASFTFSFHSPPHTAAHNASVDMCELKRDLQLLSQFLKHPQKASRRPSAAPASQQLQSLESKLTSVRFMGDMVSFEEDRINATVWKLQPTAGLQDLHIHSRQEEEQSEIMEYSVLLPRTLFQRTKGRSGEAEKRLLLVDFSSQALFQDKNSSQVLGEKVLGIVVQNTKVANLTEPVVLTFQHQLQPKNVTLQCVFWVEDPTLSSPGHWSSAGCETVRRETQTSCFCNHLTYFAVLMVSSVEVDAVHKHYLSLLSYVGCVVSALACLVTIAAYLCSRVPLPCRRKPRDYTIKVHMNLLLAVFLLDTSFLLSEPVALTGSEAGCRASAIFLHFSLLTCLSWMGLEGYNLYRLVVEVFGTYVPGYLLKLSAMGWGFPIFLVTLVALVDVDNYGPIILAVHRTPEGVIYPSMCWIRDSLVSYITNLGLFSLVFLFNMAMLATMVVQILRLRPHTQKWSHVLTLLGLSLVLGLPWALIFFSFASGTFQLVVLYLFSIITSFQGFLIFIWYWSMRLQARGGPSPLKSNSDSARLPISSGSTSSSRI
Experiment: flow cytometry, 32D-Gpr56 cells, α-rat AF647 secondary; the dashed histogram is taken as the control

binding result	Binder
no binding (tested: 10 µg/ml)	3.2E3 (antibody, V domains shown) VH: QVQLVESGGGVVQPGRSLRLSCVASGFTLSLNGMHWVRQAPGKGLEWVAVIWYDGSNRYYVDSVKGRFTISRDNSKNTLYLQMNSLRAEDTAVYYCARESFLGTFDYWGQGTLVTVSS VL: DIQLTQSPSFLSASVGDRVTITCRASQGISSYLAWYQQKPGKAPKLLIYAASTLQSGVPSRFSGSGSGTEFTLTISSLQPEDFATYYCQQLNSYPYTFGQGTKLEIK

Biological target: T1, CD34 peptide (region 191 aa-207aa of …)
Experiment: not stated: column headed Affinity, with no unit, method or antigen form printed; table of the CD34-peptide-positive monoclonals

Affinity	Binder
3e-08	2.4c10 (antibody, V domains shown, Anti-CD34 hybridoma clone from H2L2 mice) VH: QVQLVESGGGVVQPGRSLRLSCAASGFTFSNYGMHWVRQAPDKGLEWVAVIWYDGSKKYYADSVKGRFTISRDDSKNTLYLQMNSLRAEDTAVYYCARWGELRYDAFDIWGQGTMVTVSS VL: not shown
2.1e-09	2.6f11 (antibody, V domains shown, Anti-CD34 hybridoma clone from H2L2 mice) VH: QVQLVESGGGVVQPGRSLRLSCAASGFTFSSYGMHWVRQAPGKGLEWVAVIWYDGSKKYYTDSVKGRFTISRDNSKNTLYLQMNSLRAEDTAVFYCARWGSGNFDSFDIWGQGTMVTVSS VL: DIQMTQSPSTLSASVGDRVTITCRASQSISSWLAWYQQKPGKAPKLLISKASSLESGVPSRFSGSGSGTEFTLTISSLQPDDFATYYCQQYKNYWTFGQGTKVEIK
1.3e-09	4.5c5 (antibody, V domains shown, Anti-CD34 hybridoma clone from H2L2 mice) VH: EMQLLESGGGLVQPGGSLRLSCAASGFTFGHYAMTWVRQVPGKGLDWVSAISGGGTFTHYADSVKGRFTTSRDNSKNTLYLQMSSLRAEDTALYYCAKDQGYDYSWYYFDYWGQGTLVTVSS VL: not shown
8.2e-10	4.5 e5 (antibody, V domains shown, Anti-CD34 hybridoma clone from H2L2 mice) VH: EMQLLESGGGLVQPGGSLRLSCAASGFTFGHYAMTWVRQVPGKGLDWVSAISGGGTFTHYADSVKGRFTTSRDNSKNTLYLQMSSLRAEDTALYYCAKDQGYDYSWYYFDYWGQGTLVTVSS VL: not shown
3.9e-09	L.1c7 (antibody, V domains shown, Anti-CD34 hybridoma clone from H2L2 mice) VH: EMQLLESGGGLVQPGGSLRLSCAASGFTFGHFAMSWVRQVPGKGLDWVSAISGGGSFTYSADSVKGRFTTSRDNSKNTLYLQMSSLRAEDTALYYCAKDQGYDYSWYYFDFWGQGTLVTVSS VL: DIQMTQSPSTLSASVGDRVTITCRASQSISSWLAWYQQRPGKAPKLLIYKASSLESGVPSRFSGRGSGTEFTLTISSLQPDDFATYYCQQYKSHSITFGQGTRLEIK
